Experiment [1] has as its target T1, human gp130-his (human, UniProt P40189 23-619).
T1 construct: gp130 (interleukin-6 receptor subunit beta), human; source: bought: Sino Biological
T1 sequence (looked up): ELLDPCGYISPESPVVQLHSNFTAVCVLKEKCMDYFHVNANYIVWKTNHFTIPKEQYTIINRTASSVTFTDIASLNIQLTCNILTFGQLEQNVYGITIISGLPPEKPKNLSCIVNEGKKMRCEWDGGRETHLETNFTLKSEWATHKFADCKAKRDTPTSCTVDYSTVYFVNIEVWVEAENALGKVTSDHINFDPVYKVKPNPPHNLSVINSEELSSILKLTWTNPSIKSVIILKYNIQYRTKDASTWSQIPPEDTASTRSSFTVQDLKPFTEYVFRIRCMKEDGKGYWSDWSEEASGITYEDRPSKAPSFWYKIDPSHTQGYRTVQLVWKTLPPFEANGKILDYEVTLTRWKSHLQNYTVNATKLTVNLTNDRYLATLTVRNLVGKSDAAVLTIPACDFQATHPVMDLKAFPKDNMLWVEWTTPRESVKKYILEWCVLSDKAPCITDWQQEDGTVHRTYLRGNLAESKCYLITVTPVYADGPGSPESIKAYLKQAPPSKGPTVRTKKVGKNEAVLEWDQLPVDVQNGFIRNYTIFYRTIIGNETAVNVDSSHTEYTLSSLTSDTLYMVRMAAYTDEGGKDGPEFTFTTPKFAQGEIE
Nature of the experiment: ELISA; receptor competitive ELISA: wells coated with LIFR-his or gp130-his (100 ng/well); hLIF-hFc (50 ng) pre-mixed with recombinant antibody at 4 C for 1 h, then 37 C for 1 h on the plate; detected with HRP goat anti-human IgG. Conditions: both partners purified. A general note: In an ELISA, binding on a coated surface is turned into a signal by an enzyme label.

The target in experiment [2] is T1, human gp130-his. Nature of the experiment: SPR; Biacore 8K, CM5 chip with anti-mouse IgG, 1G11 captured; 200 nM hLIF flowed, followed by 500 nM LIFR-his or gp130-his; 25 C, pH 7.4, 10 mM HEPES, 150 mM NaCl, 3 mM EDTA, 0.05% Tween-20. Particulars: both partners purified. In general terms: Surface plasmon resonance follows binding to a sensor surface in real time, without labels.

B1: human LIF with human IgG1-Fc tag (Fc fusion)
chain: not shown
notes: also called hLIF-hFc; LIF-hFc
For B1, the binding result in experiment [1] is on record as “binds”.

B2: human LIF (ligand)
chain: not shown
notes: also called hLIF; source: bought: Genscript
As for B2, the binding result in experiment [2] is “binds”.
